The record followed here is article PMC12640004.

This series deals with JrERF113-HIS (Juglans regia). Nature of the series: EMSA. Background: Mobility shift assays separate free from complexed probe on a gel.

Numbering of substitutions follows the chain as printed.

B1: JrIPT1 bioProbe (wild type) (dsDNA)
DNA 1: ATCATACTGATGGAGGAGGGCGGTCCCGAATTTATATATATAGTTTCTAC
DNA 2: GTAGAAACTATATATATAAATTCGGGACCGCCCTCCTCCATCAGTATGAT
Take B1: the binding result is given as “binds”.

B2: JrIPT1 mbioProbe (GCC-box mutant) (dsDNA)
DNA 1: B1 DNA 1 with G16T, G18T, G19T, G20T, G22T, G23T
DNA 2: B1 DNA 2 with C28A, C29A, C31A, C32A, C33A, C35A
With B2, the binding result is on record as “no binding”.
